Assay results published in the DeepSol protein solubility set.

Experiment: soluble on expression in E. coli; label from the status in PepcDB or PDB records

| Sequence | soluble on expression in E. coli |
| --- | --- |
| GPGSMHSEQSICEFIHMQRELRRCYATMENYEVVIAQLRDDCALSRAQLCRFQQEHAQRGKDVEAQVRAELTEQTNARLSALRQSEASDALCLKTSAGPDRNTTDAAEEYRRDTCQATLDELRRALQEEQSAHAECLARLTEALAAKARWKSRAVELLKWRKQVCGQMYMSSTPSSSSFVAGARAIGTCGALPGVSTISNCASDSQAEPNAGNSASDVSSPSQRLYRPPSPYKPPPCVSSPSEAGKLRSSMTSEASAALPASPYEGGTGACAADKENEKDSSSTPGADISCQSDSTAVSFLSPSTTPAGRVAQALGSGVVVVWPPLAERQEMSTRKSAESSRTQSSTTAAALESGNPALLDDSGKQGLQPSPPTSSVSPGVLPSSVGRYTTSAVGSRTQAGCRLPLVGCEKAVVAAEPLRVMPDPFAFPRPPPSGGVTCTNHSLLSTSDELPTSCDVSAAMASSAAERQCNELLRALLDKEQQLALIAEERTKYKRLYEATQS | not soluble |
| DIVLTQSPATLSVTPGNSVSLSCRASQSIGNNLHWYQQKSHESPRLLIKYASQSISGIPSRFSGSGSGTDFTLSINSVETEDFGMYFCQQSNSWPYTFGGGTKLEITGGGGSGGGGSGGGGSDIQLQESGPSLVKPSQTLSLTCSVTGDSITSDYWSWIRKFPGNRLEYMGYVSYSGSTYYNPSLKSRISITRDTSKNQYYLDLNSVTTEDTATYYCANWDGDYWGQGTLVTVSAAHHHHHH | soluble |
| GPGSMSVTIYGIKNCDTMKKARIWLEDHGIDYTFHDYKKEGLDAETLDRFLKTVPWEQLLNRAGTTFRKLPEDVRSNVDAASARELMLAQPSMVKRPVLERDGKLMVGFKPAQYEAYFKL | soluble |
| MKLNVDGLLVYFPYDYIYPEQFSYMRELKRTLDAKGHGVLEMPSGTGKTVSLLALIMAYQRAYPLEVTKLIYCSRTVPEIEKVIEELRKLLNFYEKQEGEKLPFLGLALSSRKNLCIHPEVTPLRFGKDVDGKCHSLTASYVRAQYQHDTSLPHCRFYEEFDAHGREVPLPAGIYNLDDLKALGRRQGWCPYFLARYSILHANVVVYSYHYLLDPKIADLVSKELARKAVVVFDEAHNIDNVCIDSMSVNLTRRTLDRCQGNLETLQKTVLRIKETDEQRLRDEYRRLVEGLREASAARETDAHLANPVLPDEVLQEAVPGSIRTAEHFLGFLRRLLEYVKWRLRVQHVVQESPPAFLSGLAQRVCIQRKPLRFCAERLRSLLHTLEITDLADFSPLTLLANFATLVSTYAKGFTIIIEPFDDRTPTIANPILHFSCMDASLAIKPVFERFQSVIITSGTLSPLDIYPKILDFHPVTMATFTMTLARVCLCPMIIGRGNDQVAISSKFETREDIAVIRNYGNLLLEMSAVVPDGIVAFFTSYQYMESTVASWYEQGILENIQRNKLLFIETQDGAETSVALEKYQEACENGRGAILLSVARGKVSEGIDFVHHYGRAVIMFGVPYVYTQSRILKARLEYLRDQFQIRENDFLTFDAMRHAAQCVGRAIRGKTDYGLMVFADKRFARGDKRGKLPRWIQEHLTDANLNLTVDEGVQVAKYFLRQMAQPFHREDQLGLSLLSLEQLESEETLKRIEQIAQQL | not soluble |
| MGSDKIHHHHHHPEQQVQQFAQLPVGFKNMGNTCYLNATLQALYRVNDLRDMILNYNPSQGVSNSGAQDEEIHKQIVIEMKRCFENLQNKSFKSVLPVVLLNTLRKCYPQFAERDSQGGFYKQQDAEELFTQLFHSMSIVFGDKFSEDFRIQFKTTIKDTANDNDITVKENESDSKLQCHISGTTNFMRNGLLEGLNEKIEKRSDLTGANSIYSVEKKISRLPKFLTVQYVRFFWKRSTNKKSKILRKVVFPFQLDVADMLTPEYAAEKVKVRDELRKVEKEKNEKEREIKRRKFDPSSSENVMTPREQYETQVALNESEKDQWLEEYKKHFPPNLEKGENPSCVYNLIGVITHQGANSESGHYQAFIRDELDENKWYKFNDDKVSVVEKEKIESLAGGGESDSALILMYKGFGL | soluble |
| MGSDKIHHHHHHMSERLRVLVVSHGHPAMSLGGAEIASHSLHKGLNTLPGVESIYLARVGHPVPRHGASALMSLRLAVDEVLFHADDYDHFFLSNGDTEAIRRDLLRFIGDLSPHVIHFHHLIGMGMEALYALREALPEAVIVVTFHEYLSLCHNHGQMVKRPSAQLCNSSSPISCHGCFPDIPVSRFLRREEFLRGMLGLADAFISPSMFLANRYVEWGIDAEKLSVIDNGIVMGEAAPVRDLPVPSARRNRFAYFGQMTPFKGIDVLVDAVSRVPEEIWGEDSCLMIFGGNLERQPAEFQERLKKLIDDAGRRVRFYGAYQNADMPRLMRSVDWVVLPSIWWENSPVVIQEALHHRRPIICSDIGGMAEKVQDGRDGLHFRAGSAQDLADRLSDVLVKPEAWDRLHATLRPPTGHAESARAHADLYRRLLKDRRSPLGAAQYEAAAQAVV | not soluble |
| MRSQRELTSPMTPLENPGDISDKPRLTTQKLSLGYGQQLIINKLSLSIKNGAFSVIIGPNGCGKSTLLRALSRSLLPQNGSIRLDQQDIQHYKAKVFARQLSLLSQGASISETLTVFDLVSRGRYAHQSFFHQWSTEDERIVKAAISAVNLESLVQQRVSELSGGQRQRAWFAMTLAQHTPIVLLDEPTTYLDIAHQIEMLDLCQELQQQGKTLVLVLHDINQALRYATHLIMLKEGQIYAEGLPESIVTEDSIAAVFGLRCRIITDPESGKPLVIPRRQSR | not soluble |
| MGSDKIHHHHHHMSTLLRQHAEQQFAEELHELKQNETNPVPENWEMSPQSVVTYLMGGKLKNGFEVSPKYIGNRRLMEIAVATLVTDRALLLYGLPGTAKSWVSEHIAAAISGDSTLIVQGTAGTGEEAIRYGWNYARLLAEGPSVGALVQTPVMKAMQEGKIGRIEELTRIGSDVQDTLITILSEKTLPIPELNTEVQAIRGFNIIATANNRDKGVNDLSSALKRRFNTVILPLPDSIDEEIDIVRRRVESFEKVMQLPAEKPALEEIRRVVTIFRELRQGATADGKTKLKTPSGTLSTAEAISVVNNGLAMAGYFGDGEIHAEDLVSGILGAVVKDPVQDKVVWQEYMETVVKNRDGWKDIYRASRDMI | not soluble |
| MTATNKQVILKDYVSGFPTESDFDFTTTTVELRVPEGTNSVLVKNLYLSCDPYMRIRMGKPDPSTAALAQAYTPGQPIQGYGVSRIIESGHPDYKKGDLLWGIVAWEEYSVITPMTHAHFKIQHTDVPLSYYTGLLGMPGMTAYAGFYEVCSPKEGETVYVSAASGAVGQLVGQLAKMMGCYVVGSAGSKEKVDLLKTKFGFDDAFNYKEESDLTAALKRCFPNGIDIYFENVGGKMLDAVLVNMNMHGRIAVCGMISQYNLENQEGVHNLSNIIYKRIRIQGFVVSDFYDKYSKFLEFVLPHIREGKITYVEDVADGLEKAPEALVGLFHGKNVGKQVVVVARE | soluble |
| MGSDKIHHHHHHMFLAGAFIAVGSLYAQSSDAEWQAGVAKLKETIQTNPAQANEEAEQLIKGKNKKNVELLVAIGEVYLKAGKLPEAQEYAALAKKVNGKSALASVLEGDIAFEQKNAGLASQKYEEAIYFDPSCTEAYLRYADIYKSANAALAIEKLEQLKAQEPSNTAVDKKLAEIYYLKNDFSKAAEAYSRFAMGPTATEEDLVKYAFALFLNHDFEKSLEVANMGLKKNARHAAFNRLAMYNYTDLKRFDEAIKAADAFFTESDKADYSYLDYMYYGHLLEALKKYDEAVGQYEKAIQLDPTKTDLYKNISSAYEQKNDYKKAISAYQKYYTSLDKEHQTPDLQFQFGRLYYGAGTQTDSLTINAEERKQALMAADSVFHSIAEAAPDSYLGNFWRARANSALDPETTLGLAKPFYEEVATLLESKNDPHYNSALIECYSYLGYYYLLAIENPALKAEAMANKEKSKEYWSKILAIDSTNATAKRALDGIK | not soluble |
| MDKLSLEEKVDLLIENGIRILNKAYALEKKPVDMGHGVLLYPSEFHLIETAGKNPAENLTSISSRLGVTKGAISQMVKKLEKKGLVKKVRVPGNKKDVMLELTDFGREAFEWHKSLHESMEAGIRKELEGMSSSEMETFLRVYGHLERMLDRCMERYR | not soluble |
| MKFTPPPASLRNPLIIPEKIMMGPGPSNCSKRVLTAMTNTVLSNFHAELFRTMDEVKDGLRYIFQTENRATMCVSGSAHAGMEAMLSNLLEEGDRVLIAVNGIWAERAVEMSERYGADVRTIEGPPDRPFSLETLARAIELHQPKCLFLTHGDSSSGLLQPLEGVGQICHQHDCLLIVDAVASLCGVPFYMDKWEIDAVYTGAQKVLGAPPGITPISISPKALDVIRNRRTKSKVFYWDLLLLGNYWGCYDEPKRYHHTVASNLIFALREALAQIAEEGLENQIKRRIECAQILYEGLGKMGLDIFVKDPRHRLPTVTGIMIPKGVDWWKVSQYAMNNFSLEVQGGLGPTFGKAWRVGIMGECSTVQKIQFYLYGFKESLKATHPDYIFEESNGFH | soluble |
| MEIIGGKEVSPHSRPFMASIQYGGHHVCGGVLIDPQWVLTAAHCQYRFTKGQSPTVVLGAHSLSKNEASKQTLEIKKFIPFSRVTSDPQSNDIMLVKLQTAAKLNKHVKMLHIRSKTSLRSGTKCKVTGWGATDPDSLRPSDTLREVTVTVLSRKLCNSQSYYNGDPFITKDMVCAGDAKGQKDSCKGDAGGPLICKGVFHAIVSGGHECGVATKPGIYTLLTKKYQTWIKSNLVPPHTN | soluble |
| GPGSMAHLFFTGACAAAAALPISDREEVSPVWSIYDDYCCGASQHAEVDDPQVEGEGVGNCGGTTPPRLPFISGPVSSMTLKGAQLKKEAPIRRGAQGAVYSALDVATSAPAEDEKAKGLFSPEACRGHEGEAQVADGGQRPARRGRRVAVKRIFIQASDFGARDISATVLREVTLHRFVSEKQAACLAAAGAFYPTGSTSDATALAEADQGQTLCNLIDDSARVIHLYRVVEAPHKEMCLVMELAATNLEQVVFPHGARGASRGDGAGGYKRKPGVVSLFGSSASIGVGGGLGLSSASPSTAPDAATAEVGPQASSPSPPPSRMPLVRYVMRRLLRLVCFLHETCCVVHRDLKLSNVLVSKDAGLRLGDFGSARFIPPLRSATKTGVENSPSVPEPPAAPAGQREHLLCTPPSIRTTLHYRPPEALLGDQVCRTAADVWALGVIFAQLLLQKGLFHSESELDLLGAIQKLLGMPTYSAPPSWLAAPSVPGPPRERESAAHVPAPQASLPYKFHTGVVPADGLDLLSRMLHQQPECRVTAREALQHPFLNLEGLSAAATHDDDERGRVLWEERVATVLREQATGHIYGMGGGERRPMLISLADNEDEEDQEDDEVGVAPFCVNLGGCTSY | not soluble |
| MAQTNLSFNPSPRYKSKKGWYKDTPPKEKGGMPTEVEIAGPIVIENKFIDPKTNTEKLIITDEDQKEIVESSDILTTQKLPSLMKYGFSINEKYTKDLGYALQQMRNQLPISYLYEGVGILETPFGPIVSLSEIYTTKEFDNKSPSDAICDNAYDLTPKGTFDNWFNMYLKEVKGSLLLELAVVFGISALVTSFLKHKHETEFAGIIFSFTGQSSTGKSTAASLAVSVAGNPTKGNETLFRNWNATRNALEGYLSNNFGIPIVFDELSSATFRDTTGLLYSITEGQGRQRSNVHGEVKTPKNWGTSVISTSEHSIFNDSAQNDGLRVRTIEINEQFTTNATNADNIKKAVALNYGHVLPLVAKYLINREDEVIQWFYKEVDWFEAKLKDDKSNTGNRMFKRYAVITTSAKILGRVLATDIDIAKIRDYFIDYHGHTISERSLADKAIDVIIQFVAQNRGKFSDEGALKNMFENYGLISLKDDHIEVKMIANVFKQMLNNHQFQDVNNVVNALRDKGFILADRGRQTTKRSVKDNSGKKQSLVFYHLKLDVEFASILGLTKDKSLIQNWTPANDNKAAKELFKSANEGIGPSGVHEDFLEHHHHHH | not soluble |
| MHRIMLSGYLKALVDAGILKERRIKPVTLYSVLRRQDMNIYELTGNAIRSSGSKMDGDTALRLLYAILRRPVFLTEVERCGTKKPLNFETIIWERRKDLIRKLAESGIIIPETDMLVVPKDATADNTIDLISTLLGQVIDLKKYTIPEAEKKQKTLDF | not soluble |
